Substrate in the series: Nc1nc2c(ncn2[C@@H]2O[C@H](COP(=O)(O)OP(=O)(O)OP(=O)(O)O)[C@@H](O)[C@H]2O)c(=O)[nH]1
Description: radioactive GTPase assay, thin-layer chromatography, Lineweaver-Burk. It counts as biochemical, Saccharomyces cerevisiae. As to conditions: pH 7.4, 37 °C, 5 mM MgCl2, 5 mM KCl, 25 mM HEPES, 100 mM sucrose, 60 min, labelled compound [α-32P]GTP 0.1-1.2 μM, no GAP, GEF or Gtr2.

B1: Gtr1 (Saccharomyces cerevisiae S288C) (protein)
chain: MSSNNRKKLLLMGRSGSGKSSMRSIIFSNYSAFDTRRLGATIDVEHSHLRFLGNMTLNLWDCGGQDVFMENYFTKQKDHIFQMVQVLIHVFDVESTEVLKDIEIFAKALKQLRKYSPDAKIFVLLHKMDLVQLDKREELFQIMMKNLSETSSEFGFPNLIGFPTSIWDESLYKAWSQIVCSLIPNMSNHQSNLKKFKEIMNALEIILFERTTFLVICSSNGENSNENHDSSDNNNVLLDPKRFEKISNIMKNFKQSCTKLKSGFKTLILNNNIYVSELSSNMVCFIVLKDMNIPQELVLENIKKAKEFFQ
notes: full-length, N-terminal His6 tag (pET28a+ named in acknowledgements), expressed in E. coli, Ni-NTA purified, 36 kDa, monomer (without Gtr2); printed PDB id is of the Gtr1-Gtr2 complex of others
In general, Km refers to the substrate concentration at which the rate is half of its maximum. Broadly, the kcat is the number of substrate molecules converted per active site and unit of time at saturation. As to B1, the Michaelis-Menten constant (Km) was 1.0 µM and the kcat was 0.004 min⁻¹.

The values above are taken from PMC3477016, “The intrinsic GTPase activity of the Gtr1 protein from Saccharomyces cerevisiae” (BMC Biochemistry, 2012).
